Measured values from PMC5070869, “Secretion-Positive LGI1 Mutations Linked to Lateral Temporal Epilepsy Impair Binding to ADAM22 and ADAM23 Receptors” (PLoS Genetics, 2016).

Tests used:
HA-ADAM23 = target: T1, HA-ADAM23 (UniProt O75077 287-832); experiment: immunostaining of cells or tissue; COS7 cells co-transfected with LGI1-Flag (wild type or mutant) and HA-ADAM22 or HA-ADAM23; 36 h after transfection fixed, LGI1 stained with anti-Flag before permeabilisation, ADAM with anti-HA after it; percentage of co-immunostained cells with both signals on the cell surface counted; three independent experiments; details: partners not purified
T1 construct: ADAM23 (A Disintegrin And Metalloprotease domain 23) receptor, cDNA; Expression of HA-ADAM23 in HEK293T was lower than that of HA-ADAM22; also called HA-tagged ADAM23; HA-fused ADAM23; source: COS7, co-transfected, on cells (immunofluorescence); HEK293T, co-transfected, in lysate (co-IP)
T1 sequence (looked up): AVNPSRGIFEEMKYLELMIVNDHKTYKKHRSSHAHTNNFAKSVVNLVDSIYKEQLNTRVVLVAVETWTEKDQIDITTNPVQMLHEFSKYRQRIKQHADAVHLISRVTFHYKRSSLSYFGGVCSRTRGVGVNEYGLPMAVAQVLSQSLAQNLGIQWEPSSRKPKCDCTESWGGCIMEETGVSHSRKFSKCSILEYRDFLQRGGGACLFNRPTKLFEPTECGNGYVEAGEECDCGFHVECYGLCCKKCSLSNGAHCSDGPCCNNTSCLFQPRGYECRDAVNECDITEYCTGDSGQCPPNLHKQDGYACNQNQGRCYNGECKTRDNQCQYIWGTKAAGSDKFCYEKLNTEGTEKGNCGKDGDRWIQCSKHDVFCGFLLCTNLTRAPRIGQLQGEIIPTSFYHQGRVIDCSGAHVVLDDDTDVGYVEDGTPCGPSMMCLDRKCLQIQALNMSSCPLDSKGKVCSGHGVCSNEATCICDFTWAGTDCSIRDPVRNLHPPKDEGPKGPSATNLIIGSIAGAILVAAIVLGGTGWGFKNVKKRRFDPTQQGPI

HA-ADAM22 = target: T2, HA-ADAM22 (UniProt Q9P0K1 223-906); experiment: as above; details: partners not purified
T2 construct: ADAM22 (A Disintegrin And Metalloprotease domain 22) receptor, cDNA; In the HEK293T lysates it is present in both immature (110 kDa) and mature (90 kDa) forms; also called HA-tagged ADAM22; HA-fused ADAM22; source: COS7, co-transfected, on cells (immunofluorescence); HEK293T, co-transfected, in lysate (co-IP)
T2 sequence (looked up): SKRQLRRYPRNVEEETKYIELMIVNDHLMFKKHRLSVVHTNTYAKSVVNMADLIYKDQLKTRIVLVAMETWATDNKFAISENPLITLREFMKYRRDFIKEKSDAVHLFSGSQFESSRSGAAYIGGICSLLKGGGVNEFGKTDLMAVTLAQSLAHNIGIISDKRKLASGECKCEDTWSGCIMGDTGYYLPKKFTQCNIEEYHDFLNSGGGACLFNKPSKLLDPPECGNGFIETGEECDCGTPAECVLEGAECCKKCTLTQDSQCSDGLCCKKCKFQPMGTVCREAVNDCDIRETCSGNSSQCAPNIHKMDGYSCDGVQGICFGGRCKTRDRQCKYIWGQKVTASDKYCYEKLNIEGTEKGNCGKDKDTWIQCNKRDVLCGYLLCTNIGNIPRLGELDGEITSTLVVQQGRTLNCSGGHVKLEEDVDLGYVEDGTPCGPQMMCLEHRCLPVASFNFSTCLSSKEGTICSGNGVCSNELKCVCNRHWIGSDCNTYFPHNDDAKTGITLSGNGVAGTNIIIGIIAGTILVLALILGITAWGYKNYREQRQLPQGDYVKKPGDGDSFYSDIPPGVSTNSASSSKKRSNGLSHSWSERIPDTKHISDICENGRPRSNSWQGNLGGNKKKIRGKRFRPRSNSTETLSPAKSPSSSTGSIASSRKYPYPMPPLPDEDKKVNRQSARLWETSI

B1: wild type LGI1-Flag (leucine-rich, glioma-inactivated 1) (ligand, human, UniProt O95970 35-557, looked up)
chain: KKPAKPKCPAVCTCTKDNALCENARSIPRTVPPDVISLSFVRSGFTEISEGSFLFTPSLQLLLFTSNSFDVISDDAFIGLPHLEYLFIENNNIKSISRHTFRGLKSLIHLSLANNNLQTLPKDIFKGLDSLTNVDLRGNSFNCDCKLKWLVEWLGHTNATVEDIYCEGPPEYKKRKINSLSSKDFDCIITEFAKSQDLPYQSLSIDTFSYLNDEYVVIAQPFTGKCIFLEWDHVEKTFRNYDNITGTSTVVCKPIVIETQLYVIVAQLFGGSHIYKRDSFANKFIKIQDIEILKIRKPNDIETFKIENNWYFVVADSSKAGFTTIYKWNGNGFYSHQSLHAWYRDTDVEYLEIVRTPQTLRTPHLILSSSSQRPVIYQWNKATQLFTNQTDIPNMEDVYAVKHFSVKGDVYICLTRFIGDSKVMKWGGSSFQDIQRMPSRGSMVFQPLQINNYQYAILGSDYSFTQVYNWDAEKAKFVKFQELNVQAPRSFTHVSINKRNFLFASSFKGNTQIYKHVIVDLSA
notes: the protein has a signal peptide and is secreted; also called LGI1 wild type; WT; source: COS7, co-transfected with HA-ADAM22 or HA-ADAM23 (immunofluorescence); HEK293T, co-transfected, in lysate (co-IP)
What does the source list for B1?
percent of cells with membrane-bound LGI1 (HA-ADAM23): 88%; percent of cells with membrane-bound LGI1 (HA-ADAM22): 76%

B2: LGI1-R474Q (Flag-tagged) (ligand, human, UniProt O95970 35-557, looked up)
chain: KKPAKPKCPAVCTCTKDNALCENARSIPRTVPPDVISLSFVRSGFTEISEGSFLFTPSLQLLLFTSNSFDVISDDAFIGLPHLEYLFIENNNIKSISRHTFRGLKSLIHLSLANNNLQTLPKDIFKGLDSLTNVDLRGNSFNCDCKLKWLVEWLGHTNATVEDIYCEGPPEYKKRKINSLSSKDFDCIITEFAKSQDLPYQSLSIDTFSYLNDEYVVIAQPFTGKCIFLEWDHVEKTFRNYDNITGTSTVVCKPIVIETQLYVIVAQLFGGSHIYKRDSFANKFIKIQDIEILKIRKPNDIETFKIENNWYFVVADSSKAGFTTIYKWNGNGFYSHQSLHAWYRDTDVEYLEIVRTPQTLRTPHLILSSSSQRPVIYQWNKATQLFTNQTDIPNMEDVYAVKHFSVKGDVYICLTRFIGDSKVMKWGGSSFQDIQRMPSQGSMVFQPLQINNYQYAILGSDYSFTQVYNWDAEKAKFVKFQELNVQAPRSFTHVSINKRNFLFASSFKGNTQIYKHVIVDLSA
notes: LGI1 with the ADLTE-causing substitution R474Q (c.1421G>A); secreted protein; also called c.1421G>A; source: COS7, co-transfected with HA-ADAM22 or HA-ADAM23 (immunofluorescence); HEK293T, co-transfected, in lysate (co-IP)
B2 was tested. Which “percent of cells with membrane-bound LGI1” value (HA-ADAM23) did it give?
Its value is 23%.

What about the “percent of cells with membrane-bound LGI1” value (HA-ADAM22) of the same binder?
Its value is 13%.

B3: LGI1-R407C (Flag-tagged) (ligand, human, UniProt O95970 35-557, looked up)
chain: KKPAKPKCPAVCTCTKDNALCENARSIPRTVPPDVISLSFVRSGFTEISEGSFLFTPSLQLLLFTSNSFDVISDDAFIGLPHLEYLFIENNNIKSISRHTFRGLKSLIHLSLANNNLQTLPKDIFKGLDSLTNVDLRGNSFNCDCKLKWLVEWLGHTNATVEDIYCEGPPEYKKRKINSLSSKDFDCIITEFAKSQDLPYQSLSIDTFSYLNDEYVVIAQPFTGKCIFLEWDHVEKTFRNYDNITGTSTVVCKPIVIETQLYVIVAQLFGGSHIYKRDSFANKFIKIQDIEILKIRKPNDIETFKIENNWYFVVADSSKAGFTTIYKWNGNGFYSHQSLHAWYRDTDVEYLEIVRTPQTLRTPHLILSSSSQCPVIYQWNKATQLFTNQTDIPNMEDVYAVKHFSVKGDVYICLTRFIGDSKVMKWGGSSFQDIQRMPSRGSMVFQPLQINNYQYAILGSDYSFTQVYNWDAEKAKFVKFQELNVQAPRSFTHVSINKRNFLFASSFKGNTQIYKHVIVDLSA
notes: LGI1 with the ADLTE-causing substitution R407C (c.1219C>T); secreted protein; also called c.1219C>T; source: COS7, co-transfected with HA-ADAM22 or HA-ADAM23 (immunofluorescence); HEK293T, co-transfected, in lysate (co-IP)
What does the source list for B3?
percent of cells with membrane-bound LGI1 (HA-ADAM23): 29%; percent of cells with membrane-bound LGI1 (HA-ADAM22): 36%

B4: LGI1-S473L (Flag-tagged) (ligand, human, UniProt O95970 35-557, looked up)
chain: KKPAKPKCPAVCTCTKDNALCENARSIPRTVPPDVISLSFVRSGFTEISEGSFLFTPSLQLLLFTSNSFDVISDDAFIGLPHLEYLFIENNNIKSISRHTFRGLKSLIHLSLANNNLQTLPKDIFKGLDSLTNVDLRGNSFNCDCKLKWLVEWLGHTNATVEDIYCEGPPEYKKRKINSLSSKDFDCIITEFAKSQDLPYQSLSIDTFSYLNDEYVVIAQPFTGKCIFLEWDHVEKTFRNYDNITGTSTVVCKPIVIETQLYVIVAQLFGGSHIYKRDSFANKFIKIQDIEILKIRKPNDIETFKIENNWYFVVADSSKAGFTTIYKWNGNGFYSHQSLHAWYRDTDVEYLEIVRTPQTLRTPHLILSSSSQRPVIYQWNKATQLFTNQTDIPNMEDVYAVKHFSVKGDVYICLTRFIGDSKVMKWGGSSFQDIQRMPLRGSMVFQPLQINNYQYAILGSDYSFTQVYNWDAEKAKFVKFQELNVQAPRSFTHVSINKRNFLFASSFKGNTQIYKHVIVDLSA
notes: LGI1 with the ADLTE-causing substitution S473L (c.1418C>T); secreted protein; also called c.1418C>T; source: COS7, co-transfected with HA-ADAM22 or HA-ADAM23 (immunofluorescence); HEK293T, co-transfected, in lysate (co-IP)
How did the “percent of cells with membrane-bound LGI1” value (HA-ADAM23) turn out when B4 was run?
Its value is 16%.

And the “percent of cells with membrane-bound LGI1” value (HA-ADAM22)?
Its value is 3%.
